Substitutions are numbered along the chain they refer to. Like-named read-outs stand apart in the source and are kept apart here.
T1: recombinant mIL-17A (mouse, UniProt Q62386 26-158)
T1 sequence: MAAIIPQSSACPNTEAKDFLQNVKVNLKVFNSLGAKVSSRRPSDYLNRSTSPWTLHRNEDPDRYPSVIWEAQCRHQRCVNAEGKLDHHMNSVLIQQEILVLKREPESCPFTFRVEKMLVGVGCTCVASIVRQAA

T2: recombinant huIL-17F (human, UniProt Q96PD4 31-163)
T2 sequence: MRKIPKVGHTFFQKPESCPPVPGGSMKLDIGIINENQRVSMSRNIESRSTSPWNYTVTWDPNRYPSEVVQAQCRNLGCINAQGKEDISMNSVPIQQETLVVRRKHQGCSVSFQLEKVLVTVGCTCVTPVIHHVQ

T3: recombinant huIL-17A/F heterodimer (human, UniProt Q16552 24-155; Q96PD4 31-163, limits assumed)
T3 sequence (looked up) 1: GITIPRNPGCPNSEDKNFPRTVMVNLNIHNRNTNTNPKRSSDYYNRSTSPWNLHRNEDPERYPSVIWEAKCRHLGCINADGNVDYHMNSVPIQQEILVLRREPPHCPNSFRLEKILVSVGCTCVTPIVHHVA
T3 sequence (looked up) 2: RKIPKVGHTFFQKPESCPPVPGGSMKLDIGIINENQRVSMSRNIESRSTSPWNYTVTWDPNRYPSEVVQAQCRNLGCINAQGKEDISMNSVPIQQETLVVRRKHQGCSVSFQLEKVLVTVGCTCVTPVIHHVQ

T4: recombinant huIL-17A (SEQ ID NO: 76) (human, UniProt Q16552 24-155, limits assumed)
T4 sequence: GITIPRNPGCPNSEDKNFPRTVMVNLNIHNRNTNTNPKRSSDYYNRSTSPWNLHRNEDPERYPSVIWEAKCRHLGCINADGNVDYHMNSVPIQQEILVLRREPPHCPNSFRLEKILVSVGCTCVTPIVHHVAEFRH

T5: rat IL-17A (rat, UniProt Q61453 18-150)
T5 sequence: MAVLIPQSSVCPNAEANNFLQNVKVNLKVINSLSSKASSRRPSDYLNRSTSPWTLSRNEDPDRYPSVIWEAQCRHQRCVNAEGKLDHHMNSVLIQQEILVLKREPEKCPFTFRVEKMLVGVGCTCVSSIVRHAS

T6: recombinant mIL-17F (SEQ ID NO: 84) (mouse, UniProt Q7TNI7 29-161)
T6 sequence: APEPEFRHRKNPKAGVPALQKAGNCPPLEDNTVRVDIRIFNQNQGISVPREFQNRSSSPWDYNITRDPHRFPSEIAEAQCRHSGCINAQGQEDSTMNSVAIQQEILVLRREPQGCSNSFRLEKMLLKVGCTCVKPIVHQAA

T7: human IL-17A (construct not specified) (human, UniProt Q16552 24-155, limits assumed)
T7 sequence: T4 sequence

T8: recombinant mIL-17A/F (R&D Systems Cat#5390-IL) (mouse, UniProt Q62386 26-158; Q7TNI7 29-161, limits assumed)
T8 sequence (looked up) 1: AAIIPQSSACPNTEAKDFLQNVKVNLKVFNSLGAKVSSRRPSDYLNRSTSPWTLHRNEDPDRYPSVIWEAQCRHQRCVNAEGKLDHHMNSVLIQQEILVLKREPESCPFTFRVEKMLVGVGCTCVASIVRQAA
T8 sequence (looked up) 2: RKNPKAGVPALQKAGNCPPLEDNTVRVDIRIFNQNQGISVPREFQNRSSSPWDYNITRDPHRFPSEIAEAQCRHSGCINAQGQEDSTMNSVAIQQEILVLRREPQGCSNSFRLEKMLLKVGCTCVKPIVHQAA

T9: cynomolgus IL-17A (cynomolgus monkey, UniProt Q16552 24-155 (human entry), limits assumed)
T9 construct: also called cynoIL-17A; cyno IL-17A
T9 chain: T3 sequence (looked up) 1 with T3A, P8S, N34S, I77V, N78K, P104R

T10: recombinant huIL-20 (Novartis) (human) (UniProt Q9NYY1)
T10 sequence (looked up): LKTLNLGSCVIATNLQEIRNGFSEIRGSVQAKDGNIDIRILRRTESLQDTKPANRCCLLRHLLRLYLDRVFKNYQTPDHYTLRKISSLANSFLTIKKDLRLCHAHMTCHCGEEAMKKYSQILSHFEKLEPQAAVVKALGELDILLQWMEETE

B1: XAB4 (antibody, human IgG1, kappa, V domains shown)
VH: EVQLVESGGDLVQPGGSLRLSCAASGFTFSSYWMSWVRQAPGKGLEWVANIKQDGSEKYYVDSVKGRFTISRDNAKNSLYLQMNSLRAEDTAVYYCARDRGSLYYWGQGTLVTVSS
VL: AIQLTQSPSSLSASVGDRVTITCRPSQGINWELAWYQQKPGKAPKLLIYDASSLEQGVPSRFSGSGSGTDFTLTISSLQPEDFATYYCQQFNSYPLTFGGGTKVEIKR
B2: XAB2 (antibody, human IgG1, kappa, V domains shown)
VH: B1 VH
VL: B1 VL with G28V, N30I, W31S, E32A, G66V, N92D
notes: full IgG
B3: XAB1 (antibody, human IgG1, kappa, V domains shown)
VH: B1 VH
VL: B1 VL with N30I, W31S, E32A, Q56N

Columns and labels:
[1] = molecular target: BSA (UniProt P02769); assay: ELISA, BSA wells, control antibody 1 µg/ml (XAB1 set)
[2] = molecular target: BSA (UniProt P02769); assay: ELISA, BSA wells, control antibody 5 µg/ml (XAB4 set)
[3] = molecular target: T1, recombinant mIL-17A; assay: cell-based or functional assay
[4] = molecular target: T2, recombinant huIL-17F; assay: cell-based or functional assay
[5] = molecular target: T3, recombinant huIL-17A/F heterodimer; assay: cell-based or functional assay
[6] = molecular target: recombinant mIL-17A/F (R&D Systems Cat#5390-IL) (mouse) (UniProt Q62386); assay: cell-based or functional assay
[7] = molecular target: T4, recombinant huIL-17A (SEQ ID NO: 76); assay: cell-based or functional assay
[8] = molecular target: T5, rat IL-17A; assay: cell-based or functional assay
[9] = molecular target: T6, recombinant mIL-17F (SEQ ID NO: 84); assay: cell-based or functional assay
[10] = molecular target: T2, recombinant huIL-17F; assay: cell-based or functional assay; remark: listed apart in the source
[11] = molecular target: T3, recombinant huIL-17A/F heterodimer; assay: cell-based or functional assay; remark: listed apart in the source
[12] = molecular target: T4, recombinant huIL-17A (SEQ ID NO: 76); assay: cell-based or functional assay; remark: listed apart in the source
[13] = molecular target: T7, human IL-17A (construct not specified); assay: cell-based or functional assay
[14] = molecular target: T2, recombinant huIL-17F; assay: cell-based or functional assay; remark: listed apart in the source
[15] = molecular target: T3, recombinant huIL-17A/F heterodimer; assay: cell-based or functional assay; remark: listed apart in the source
[16] = molecular target: T4, recombinant huIL-17A (SEQ ID NO: 76); assay: cell-based or functional assay; remark: listed apart in the source
[17] = molecular target: T4, recombinant huIL-17A (SEQ ID NO: 76); assay: cell-based or functional assay; remark: listed apart in the source
[18] = molecular target: T4, recombinant huIL-17A (SEQ ID NO: 76); assay: cell-based or functional assay; remark: listed apart in the source
[19] = molecular target: T1, recombinant mIL-17A; assay: cell-based or functional assay; remark: listed apart in the source
[20] = molecular target: T8, recombinant mIL-17A/F (R&D Systems …); assay: cell-based or functional assay
[21] = molecular target: T1, recombinant mIL-17A; assay: cell-based or functional assay; remark: listed apart in the source
[22] = molecular target: T5, rat IL-17A; assay: affinity determination (Tables 18-21)
[23] = molecular target: T9, cynomolgus IL-17A; assay: affinity determination (Tables 18-21)
[24] = molecular target: T10, recombinant huIL-20 (Novartis) (human); assay: ELISA, coated cytokine, antibody 10 µg/ml

BSA, sequence (P02769 25-607 limits assumed): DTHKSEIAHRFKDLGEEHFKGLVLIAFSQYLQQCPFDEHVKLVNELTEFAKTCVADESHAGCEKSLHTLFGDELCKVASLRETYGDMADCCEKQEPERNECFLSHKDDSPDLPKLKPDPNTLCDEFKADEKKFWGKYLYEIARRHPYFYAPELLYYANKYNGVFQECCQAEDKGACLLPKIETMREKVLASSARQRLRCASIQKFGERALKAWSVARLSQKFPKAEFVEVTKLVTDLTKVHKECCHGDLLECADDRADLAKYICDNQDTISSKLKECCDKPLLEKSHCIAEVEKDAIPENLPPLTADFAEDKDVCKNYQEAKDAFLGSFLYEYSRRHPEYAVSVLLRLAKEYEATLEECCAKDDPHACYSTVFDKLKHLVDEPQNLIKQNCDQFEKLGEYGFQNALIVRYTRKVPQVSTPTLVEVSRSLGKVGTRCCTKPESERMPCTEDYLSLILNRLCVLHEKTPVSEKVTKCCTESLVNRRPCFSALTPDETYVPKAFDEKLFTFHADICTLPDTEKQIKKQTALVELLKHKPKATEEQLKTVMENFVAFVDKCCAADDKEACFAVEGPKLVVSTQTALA

Row | Molecule | IC50, mouse KC secretion by CMT-93 cells; rIL-17A (1 nM) [8] | IC50, mouse KC secretion by CMT-93 cells; mIL-17F (30 nM) [9] | IC50, huIL-6 secretion by BJ cells; rhuIL-17F (10 nM) + rhuTNF-α (6 pM) [10] | IC50, huIL-6 secretion by BJ cells; rhuIL-17A/F (300 pM) + rhuTNF-α (6 pM) [11] | EC50, T = 0 weeks [13] | EC50, T = 4 weeks at pH 8, 40° C. (forced deamidation) [13] | IC50, hu-GRO-alpha secretion by BJ cells; IL-17F (10 nM) + TNF-α (6 pM) [14] | IC50, hu-GRO-alpha secretion by BJ cells; IL-17A/F (300 pM) + TNF-α (6 pM) [15] | IC50, hu-GRO-alpha secretion by BJ cells; IL-17A (30 pM) + TNF-α (6 pM) [16] | IC50, huGROα secretion by BJ cells; rhuIL-17A (0.5 nM) [17] | IC50, huIL-6 secretion by BJ cells; rhuIL-17A (0.5 nM) [18] | IC50, KC secretion by CMT-93 cells; mIL-17A (0.15 nM) [19] | IC50, mouse KC secretion by CMT-93 cells; mIL-17A/F (3 nM) [20] | IC50, mouse KC secretion by CMT-93 cells; mIL-17A (1 nM) [21] | further results
1 | Control antibody (BSA wells of Table 23; not identified) | – | – | – | – | – | – | – | – | – | – | – | – | – | – | O.D. [1]: 0.149 O.D.; O.D. [2]: 0.01 O.D.
2 | Simulect® (1.1% solution, Batch C0011; 831179) (antibody) | > 3000 nM | > 3000 nM | – | – | – | – | – | – | – | – | – | – | – | – | IC50, mouse KC secretion by CMT-93 cells; mIL-17A (1 nM) [3]: > 3000 nM; IC50, hu-GRO-alpha secretion by BJ cells; IL-17F (10 nM) + TNF-α (6 pM) [4]: > 3000 nM; IC50, hu-GRO-alpha secretion by BJ cells; IL-17F (30 nM) [4]: > 1000 nM; IC50, huIL-6 secretion by BJ cells; rhuIL-17F (10 nM) + rhuTNF-α (6 pM) [4]: > 3000 nM; IC50, huIL-6 secretion by BJ cells; rhuIL-17F (30 nM) [4]: > 1000 nM; IC50, hu-GRO-alpha secretion by BJ cells; IL-17A/F (300 pM) + TNF-α (6 pM) [5]: > 3000 nM; IC50, hu-GRO-alpha secretion by BJ cells; IL-17A/F (3 nM) [5]: > 100 nM; IC50, huIL-6 secretion by BJ cells; rhuIL-17A/F (300 pM) + rhuTNF-α (6 pM) [5]: > 3000 nM; IC50, huIL-6 secretion by BJ cells; rhuIL-17A/F (3 nM) [5]: > 100 nM; IC50, mouse KC secretion by CMT-93 cells; mIL-17A/F (3 nM) [6]: > 3000 nM; IC50, hu-GRO-alpha secretion by BJ cells; IL-17A (30 pM) + TNF-α (6 pM) [7]: > 3000 nM; IC50, hu-GRO-alpha secretion by BJ cells; IL-17A (1 nM) [7]: > 100 nM; IC50, huIL-6 secretion by BJ cells; rhuIL-17A (30 pM) + rhuTNF-α (6 pM) [7]: > 3000 nM; IC50, huIL-6 secretion by BJ cells; rhuIL-17A (1 nM) [7]: > 100 nM
3 | B1 | 6.7 nM | > 10000 nM | > 3000 nM | 0.17 nM | 0.048 µg/mL | 47 ng/ml | > 3000 nM | 0.1 nM | 0.007 nM | 0.44 nM | 0.55 nM | 7 nM | 10.3 nM | 13.8 nM | IC50, huIL-6 secretion by BJ cells; rhuIL-17F (30 nM) [10]: > 3000 nM; IC50, huIL-6 secretion by BJ cells; rhuIL-17A/F (3 nM) [11]: 1.68 nM; IC50, huIL-6 secretion by BJ cells; rhuIL-17A (1 nM) [12]: 0.63 nM; IC50, hu-GRO-alpha secretion by BJ cells; IL-17F (30 nM) [14]: > 3000 nM; IC50, hu-GRO-alpha secretion by BJ cells; IL-17A/F (3 nM) [15]: 1.11 nM; IC50, hu-GRO-alpha secretion by BJ cells; IL-17A (1 nM) [16]: 0.35 nM
4 | B2 | – | – | – | – | 0.045 µg/mL | 47 ng/ml | – | – | – | 0.4 nM | 0.64 nM | 20.9 nM | – | – | binding result [22]: binds; binding result [23]: binds
5 | B3 | 467 nM | > 10000 nM | > 3000 nM | 3.83 nM | – | – | > 3000 nM | 6.22 nM | 0.72 nM | 1.39 nM | 4.97 nM | 128 nM | > 1000 nM | 539 nM | IC50, huIL-6 secretion by BJ cells; rhuIL-17A (30 pM) + rhuTNF-α (6 pM) [12]: 0.47 nM; O.D. [24]: 0.335 O.D.

Source: patent US20170291939A1 (Novartis, published 2017)
